Measurements as given in patent publication US20210171616A1 (Eli Lilly, published 2021).

Key:
[1] = target: T1, N-terminal biotinylated PACAP38 (Anaspec, #23590) (human, N-terminal biotin; K at residue 38 modified by C-terminal amidation (as stated for SEQ ID NO 13)); experiment: kinetic exclusion 96-well MSD plate assay, solution equilibrium at 37 C, 30 pM biotinylated antigen
T1 construct: Bought peptide; also called Antigen (PACAP38)
T1 peptide: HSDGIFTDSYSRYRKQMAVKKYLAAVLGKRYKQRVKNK
Experimental: (§1) Binding affinity (KD) for each antibody-antigen complex is determined using a kinetic exclusion 96-well plate-based assay (adapted from Estep et al., mAbs, 2013, 5:270-278). Briefly, a 3-fold dilution series for each Exemplified Ab (set forth in Table 1) is prepared from a starting concentration of 7290 pM to 41 fM; each series including an antibody-blank control. Samples are prepared in 3% (w/v) Blocker A solution (MSD, #R93AA-1) and a fixed final antigen concentration of 30 pM of N-terminal biotinylated PACAP27 (custom synthesis, CPC Scientific) or N-terminal biotinylated PACAP38 (Anaspec, #23590) is added to each sample. A volume of 100 μl of each antigen-antibody sample is added to individual wells of a 96-well microtiter plate (Greiner, EK-20101) in duplicate. The plate is sealed with optical adhesive film (Thermo Fisher Scientific, #4311971) and incubated at 37° C. for 3 to 4 days to allow for sample equilibrium. On the day before analysis, each row of a 96-well MSD Standard plate (MSD, #L15XA) is coated with 30 μl of the corresponding antibody (as used in the titration series) at a concentration of 3 μg/ml in phosphate buffered saline (PBS). On the day of the experiment, the MSD Standard plate is washed once with 150 μl PBS and blocked with 150 μl of 3% Blocker A solution for 45 min at 30° C. with shaking at 300 rpm on a MaxQ 4450 benchtop shaker (Thermo Fisher Scientific). Following three washes with PBS, 50 μl of each antigen-antibody sample (prepared and incubated as described above) is added to the MSD Standard plate and incubated for 150 seconds at 30° C. with shaking at 300 rpm. Following a single wash with PBS, 50 μl of 1 μg/ml SULFO-TAG labeled Streptavidin (MSD, #R32AD-5) prepared in 1% (w/v) Blocker A solution is added and the MSD Standard plate and the plate is incubated at 30° C. for 3 minutes with shaking at 300 rpm. The plate is washed three more times with PBS followed by the addition of 150 μl/well of 1× Read buffer (MSD, #R92TC-2). The MSD Standard plate is read using a MESO Quickplex SQ 120/1300 instrument (Meso Scale Discovery). Data analysis is done using SigmaPlot (Version 12.5, Systat Software) and binding affinity (KD) is determined using SigmaPlot's integrated Four Parameter Logistic Curve Model.

[2] = target: T2, N-terminal biotinylated PACAP27 (custom synthesis, CPC Scientific) (human, N-terminal biotin; L at residue 27 modified by C-terminal amidation (as stated for SEQ ID NO 14)); experiment: as above
T2 construct: Custom peptide; also called Antigen (PACAP27)
T2 peptide: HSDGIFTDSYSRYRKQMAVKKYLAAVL
Experimental: as §1

PACAP38 [3] = target: T3, PACAP38 (human, K at residue 38 modified by C-terminal amidation); experiment: cell-based or functional assay
T3 peptide: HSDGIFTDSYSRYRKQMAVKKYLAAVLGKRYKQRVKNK

PACAP38 [4] = target: T3, PACAP38; experiment: cell-based or functional assay
PACAP27 [5] = target: T4, PACAP27 (human, L at residue 27 modified by C-terminal amidation); experiment: cell-based or functional assay
T4 peptide: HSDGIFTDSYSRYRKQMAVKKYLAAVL

PACAP27 [6] = target: T4, PACAP27; experiment: cell-based or functional assay
PACAP38 [7] = target: T3, PACAP38; experiment: cell-based or functional assay
VIP = target: T5, VIP (UniProt P01282 125-152); experiment: cell-based or functional assay
T5 peptide (looked up): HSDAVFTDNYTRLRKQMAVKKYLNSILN

PACAP27 [8] = target: T4, PACAP27; experiment: cell-based or functional assay
PACAP38 [9] = target: T3, PACAP38; experiment: cell-based or functional assay

Kd [1] [nM] | Kd [2] [nM] | Plasma cAMP levels in CD-1 mice after iv PACAP38 (13 nmols/kg); antibody 10 mg/kg sc (PACAP38 [3]) [nM] | Percentage tryptase release upon addition of PACAP38; antibody dose 0 uM (PACAP38 [4]) [%] | Percentage tryptase release upon addition of PACAP38; antibody dose 0.2 uM (PACAP38 [4]) [%] | Percentage tryptase release upon addition of PACAP38; antibody dose 0.6 uM (PACAP38 [4]) [%] | Percentage tryptase release upon addition of PACAP38; antibody dose 1.8 uM (PACAP38 [4]) [%] | Percentage tryptase release upon addition of PACAP38; antibody dose 5.6 uM (PACAP38 [4]) [%] | Percentage tryptase release upon addition of PACAP38; antibody dose 17 uM (PACAP38 [4]) [%] | Percentage tryptase release upon addition of PACAP38; antibody dose 51 uM (PACAP38 [4]) [%] | Percentage tryptase release upon addition of PACAP38; antibody dose 153 uM (PACAP38 [4]) [%] | Percentage tryptase release upon addition of PACAP27; antibody dose 0 uM (PACAP27 [5]) [%] | Percentage tryptase release upon addition of PACAP27; antibody dose 0.2 uM (PACAP27 [5]) [%] | Percentage tryptase release upon addition of PACAP27; antibody dose 0.6 uM (PACAP27 [5]) [%] | Percentage tryptase release upon addition of PACAP27; antibody dose 1.8 uM (PACAP27 [5]) [%] | Inhibition (IC50) of PACAP27 (100 pM) induced cAMP in hPAC1 CHO-K1 cells (PACAP27 [6]) [pM] | Inhibition (IC50) of PACAP27 (800 pM) induced cAMP in hVPAC2 CHO-K1 cells (PACAP27 [6]) [pM] | Inhibition (IC50) of PACAP38 (100 pM) induced cAMP in hPAC1 CHO-K1 cells (PACAP38 [7]) [pM] | Inhibition (IC50) of PACAP38 (800 pM) induced cAMP in hVPAC2 CHO-K1 cells (PACAP38 [7]) [pM] | Inhibition (IC50) of VIP (800 pM) induced cAMP in hVPAC2 CHO-K1 cells (VIP) [pM] | also measured | Binder
0.0128 | 0.0116 | 715 | 77.2 | 73.7 | 52.4 | 25.2 | 22 | 14.9 | 14.6 | 2 | 85.2 | 78.1 | 54 | 11.7 | 270 | 605 | 265 | 294 | > 100000 | Percentage tryptase release upon addition of PACAP27; antibody dose 5.6 uM (PACAP27 [5]): 8.1%; Percentage tryptase release upon addition of PACAP27; antibody dose 17 uM (PACAP27 [5]): 11.6%; Percentage tryptase release upon addition of PACAP27; antibody dose 51 uM (PACAP27 [5]): 19.4%; Percentage tryptase release upon addition of PACAP27; antibody dose 153 uM (PACAP27 [5]): 10.3%; Percentage tryptase release in human mast cells upon addition of 1 uM PACAP27; antibody 153 uM, single point (PACAP27 [8]): 21%; Percentage tryptase release in human mast cells upon addition of 1 uM PACAP38; antibody 153 uM, single point (PACAP38 [9]): 4.9% | Exemplified Antibody B (antibody, human IgG4 S228P, kappa, F234A L235A, V domains shown, IgG4, kappa light chain; also called Exemplified Ab B; Ab B) VH: EVQLLESGGGLVQPGGSLRLSCAASGFTFSSYYMSWVRQAPGKGLEWVSAISLSGGSTYYAASHKGRFTISRDNSKNTLYLQMNSLRAEDTAVYYCVREVGASTHNYYGMDVWGQGTMVTVSS VL: DIQMTQSPSSLSASVGDRVTITCRASQSIWRWLAWYQQKPGKAPKLLIHDASQLFEGVPSRFSGSGSGTDFTFTISSLQPEDIATYYCQQFDLLPLTFGGGTKVEIKR
0.009 | 0.0105 | 560 | 76.5 | 74 | 64.5 | 31.3 | 25.9 | 19.6 | 14.7 | 1.7 | 92.7 | 86.5 | 73 | 20.3 | 212 | 515 | 205 | 243 | > 100000 | Percentage tryptase release upon addition of PACAP27; antibody dose 5.6 uM (PACAP27 [5]): 16.4%; Percentage tryptase release upon addition of PACAP27; antibody dose 17 uM (PACAP27 [5]): 19.8%; Percentage tryptase release upon addition of PACAP27; antibody dose 51 uM (PACAP27 [5]): 26%; Percentage tryptase release upon addition of PACAP27; antibody dose 153 uM (PACAP27 [5]): 9.4%; Percentage tryptase release in human mast cells upon addition of 1 uM PACAP27; antibody 153 uM, single point (PACAP27 [8]): 15.1%; Percentage tryptase release in human mast cells upon addition of 1 uM PACAP38; antibody 153 uM, single point (PACAP38 [9]): 4.2% | Exemplified Antibody D (antibody, human IgG4 S228P, kappa, F234A L235A, V domains shown, IgG4, kappa light chain; also called Exemplified Ab D; Ab D) VH: EVQLLESGGGLVQPGGSLRLSCAASGFTFSSYYMSWVRQAPGKGLEWVSAISLSGGSTYYAQSHKGRFTISRDNSKNTLYLQMNSLRAEDTAVYYCVREVGASTHNYYGMDVWGQGTMVTVSS VL: DIQMTQSPSSLSASVGDRVTITCRASQSIWRWLAWYQQKPGKAPKLLIHDASQLFEGVPSRFSGSGSGTDFTFTISSLQPEDIATYYCQQFDLLPLTFGGGTKVEIKR
0.0146 | 0.0145 | 666 | 80.3 | 77.6 | 66.6 | 26.5 | 21.9 | 15.5 | 12.1 | 2.8 | 85.8 | 85.2 | 55.4 | 10.4 | 311 | 595 | 303 | 325 | > 100000 | Percentage tryptase release upon addition of PACAP27; antibody dose 5.6 uM (PACAP27 [5]): 11.5%; Percentage tryptase release upon addition of PACAP27; antibody dose 17 uM (PACAP27 [5]): 8%; Percentage tryptase release upon addition of PACAP27; antibody dose 51 uM (PACAP27 [5]): 17.8%; Percentage tryptase release upon addition of PACAP27; antibody dose 153 uM (PACAP27 [5]): 9.7%; Percentage tryptase release in human mast cells upon addition of 1 uM PACAP27; antibody 153 uM, single point (PACAP27 [8]): 14.2%; Percentage tryptase release in human mast cells upon addition of 1 uM PACAP38; antibody 153 uM, single point (PACAP38 [9]): 5.5% | Exemplified Antibody C (antibody, human IgG4 S228P, kappa, F234A L235A, V domains shown, IgG4, kappa light chain; also called Exemplified Ab C; Ab C) VH: EVQLLESGGGLVQPGGSLRLSCAASGFTFSSYYMSWVRQAPGKGLEWVSAISLSGGSTYYAESHKGRFTISRDNSKNTLYLQMNSLRAEDTAVYYCVREVGASTHNYYGMDVWGQGTMVTVSS VL: DIQMTQSPSSLSASVGDRVTITCRASQSIWRWLAWYQQKPGKAPKLLIHDASQLFEGVPSRFSGSGSGTDFTFTISSLQPEDIATYYCQQFDLLPLTFGGGTKVEIKR
 | 0.037 |  |  |  |  |  |  |  |  |  |  |  |  |  | 2250 | 781 | 554 | 714 | > 100000 |  | Exemplified Antibody A (antibody, human IgG4 S228P, kappa, F234A L235A, V domains shown, IgG4, kappa light chain; also called Exemplified Ab A; Ab A) VH: EVQLLESGGGLVQPGGSLRLSCAASGFTFSSYYMSWVRQAPGKGLEWVSAISLSGGSTYYADSHKGRFTISRDNSKNTLYLQMNSLRAEDTAVYYCVREVGASNHNYYGMDVWGQGTMVTVSS VL: DIQMTQSPSSLSASVGDRVTITCRASQSISRWLAWYQQKPGKAPKLLIHDASQLLEGVPSRFSGSGSGTDFTFTISSLQPEDIATYYCQQFDLLPLTFGGGTKVEIKR
